Data: the supplement of paper PMC7125110
± gives the standard error. Fewer inactive variants are shown than the library holds.

B1: glmS ribozyme (parent)
chain: AUAAAAGCGCCAGAACUACAGAAAUGUAGUUGACGAGGAGGAGGUUUAUCGAAUUUUCGGCGGAUGCCUCCAAA

Tests used:
Details in all cases: with glucosamine-6-phosphate
[1] = variants of: B1; assay: self-cleavage kobs at 40 uM GlcN6P; higher = faster cleavage; RNA array
In short: (§1)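 On sequenced MiSeq chips, barcoded ribozyme variants were made in situ by E. coli RNA polymerase and followed at 37 °C through a hybridised Cy3 probe. Glucosamine-6-phosphate was flowed in at 40 μM to 10 mM in HEPES/KCl/Mg(OAc)2 buffer. Exponential fits to normalised per-tile medians gave kobs, and weighted Michaelis–Menten fits gave kcat and KM.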

[2] = variants of: B1; assay: self-cleavage kobs at 2500 uM GlcN6P; higher = faster cleavage; RNA array
In short: as §1

[3] = variants of: B1; assay: self-cleavage kobs at 160 uM GlcN6P; higher = faster cleavage; RNA array
In short: as §1

[4] = variants of: B1; assay: self-cleavage kobs at 640 uM GlcN6P; higher = faster cleavage; RNA array
In short: as §1

[5] = variants of: B1; assay: self-cleavage kobs at 10000 uM GlcN6P; higher = faster cleavage; RNA array
In short: as §1

Variant | self-cleavage kobs at 40 uM GlcN6P [1] [s⁻¹] | self-cleavage kobs at 2500 uM GlcN6P [2] [s⁻¹] | self-cleavage kobs at 160 uM GlcN6P [3] [s⁻¹] | self-cleavage kobs at 640 uM GlcN6P [4] [s⁻¹] | self-cleavage kobs at 10000 uM GlcN6P [5] [s⁻¹]
AUAAAGGCGCCAGACCUACAGAAAUGUAGUUGACGAGGAGGAGGUUUAUCGAAUUUUCGGCGGCUGCCUCCAAA [A6G A15C A64C] | < 1e-05 | < 1e-05 | – | – | –
AUAAAAGCUCCAGAACUACAGAAAUGUAGUUGACGAGGAGAAGGUUUAUCGAAUUUUCGGCGGAUGCCUCCAAA [G9U G41A] | < 1e-05 | < 1e-05 | < 1e-05 | < 1e-05 | < 1e-05
AUAAAGGCGCCAGAACUACAGAAAUGUAGUUGACUAGGAGGAGGUUUAUCGAAUUUUCGGCGGAUGCCUCCAAA [A6G G35U] | < 1e-05 | < 1e-05 | < 1e-05 | < 1e-05 | < 1e-05
AUAAAAGCGCCAGUACUACAGAAAUGUAGUUGACGAGGAGUAGGUUUAUCGAAUUUUCGGCGGAUGCAUUCAAA [A14U G41U C68A C70U] | < 1e-05 | – | – | – | –
AUAAAAGCGGCAGAACUACAGAAAUGUAGUUGACGAGGAGGAGGUUUAUCGAAUUUUCGGUGGAUGCCUCAAAA [C10G C61U C71A] | < 1e-05 | – | – | – | –
AUAAAAGUGCCAGAACUACAGAAAUGUAGUUAACGAGGAGUAGGUUUAUCGAAUUUUCGGCGGAUGCCUCCAAA [C8U G32A G41U] | < 1e-05 | < 1e-05 | < 1e-05 | < 1e-05 | < 1e-05
AUAAAAGCGCCAGAACUACAGAAAUGUAGUUGACGAGGAGGAGGUUUAUCGAAGUGUCGGCGAAUGUCUCCAAA [U54G U56G G63A C67U] | < 1e-05 | – | – | – | < 1e-05
AUAAACGCGCCCGAACUACAGAAAUGUAGUUGACGAGGAGGAGGUUUAUCGAAUUUUCCGCGGAUGCCUCCAAA [A6C A12C G59C] | < 1e-05 | – | – | < 1e-05 | < 1e-05
AUAAAAGCGCCAGAACUACAGAAAUGUAGUUGACGAAGAGGAGGUUUAUCGUAUUUUCAACGGAUGCCUCCAAA [G37A A52U G59A G60A] | < 1e-05 | – | – | – | –
AUAAAAGCGCCGGAACUACAGAAAUGUAGUUGACGAGGAGGAGGUUUAUCGAUUUUUUGGCGGAUGCCUCCAAA [A12G A53U C58U] | < 1e-05 | – | – | – | –
AUAAAAGCGCCAGAACUACAGAAAUGUACUUGACGCGGAGGAGGUUUACCGAAGUUUCGGCGGAUGCCUCCAAA [G29C A36C U49C U54G] | < 1e-05 | – | – | – | –
AUAAAAGCGUCAGAACUACAGAAAUGUAGUUGACGAGGAGGAGGUUUAUCGAAUUUUCGGCGUAUGCCUUCAAA [C10U G63U C70U] | < 1e-05 | – | – | – | < 1e-05
AUAAAAGCGCCAGAACUACAGAAAUGUAGCUGACGAGGAGGAGGUUUAUCCAAUUUUCGGCGGAUGCCUCCAAA [U30C G51C] | < 1e-05 | – | – | – | < 1e-05
AUAAAAGCGCCAGAACUACAGAAAUGUAGUUGACGAGGAGCAGGUUUAUCGAAUUUUCAGCGGAUGCCUCCAAA [G41C G59A] | < 1e-05 | – | – | < 1e-05 | –
AUAAAAUCGCCAGAACUACAGAAAUGUAGUUGACGAGGAGGAGGUUUUUCGAAUUUUCGCCGGAUGCCUCCAAA [G7U A48U G60C] | < 1e-05 | – | – | – | –
AUAAAAGCGACAGAACUACAGAAAUGUAGUUGACGCGGAGGAGGUUUAUCGAAUUUUCGGCGGAUGCCUCCAAA [C10A A36C] | < 1e-05 | < 1e-05 | – | < 1e-05 | < 1e-05
AUAAAAGCGCCAGAACUACAGAAAUGUAGUGGACGGGGAGGAGGUUUAUCGAAUUUUCGGCGGAUGCCACCAAA [U31G A36G U69A] | < 1e-05 | – | – | – | < 1e-05
AUAAAAGGGACAGAACUACAGAAAUGUAGUUGACGAGGAGGAGGUUUAUCGAAUUUUCGUCGGAUGCCUCCAAA [C8G C10A G60U] | < 1e-05 | – | – | – | < 1e-05
AUAAAAGCGCCAGAACUACAGAAAUGUAGUUGAUGAGGAGGAGGUUUAUCUAACUUGCGGCGGAUGCCUCCAAA [C34U G51U U54C U57G] | < 1e-05 | < 1e-05 | – | – | –
AUAAAAGCGCAAGAACUACAGAAAUGUAGUUGACGAGGAGGAGGUUUAUCGAAUUUUCGGAGGAUGACUCCAAA [C11A C61A C67A] | 0.000153 ± 4.5e-05 | – | – | – | 7.62e-05 ± 2.5e-05
AUAAAAGCGCCAGAACUACAGAAAUGUAGUUGACGACGAGGAGGUUUAUCGAAUUUUCGGCGGAUGCAUCCAAA [G37C C68A] | < 1e-05 | – | – | – | < 1e-05
AUAAAAGCGCCAGAACUACAGAAAUGUAGUUGACGAGGAGGAGGUUUAUCGAAUUUUCCGCGGAUGCCUCUAAA [G59C C71U] | < 1e-05 | < 1e-05 | < 1e-05 | < 1e-05 | < 1e-05
AUAAAAGCGCCAGAACUACAGAAAUGUAGUUAACGAGGAGGAGGUUUAUCGAAUUUUCGGCGUAUGCCUCCAAA [G32A G63U] | < 1e-05 | < 1e-05 | < 1e-05 | – | < 1e-05
AUAAAAGCGCCAUAACUACAGAAAUGUAGUUGACGAGGAGGAGGGUUAUCGAAUUUUCGGCGGAUGCCUCCAAA [G13U U45G] | < 1e-05 | 8.28e-05 ± 2e-05 | – | – | 0.000133 ± 1.8e-05
AUAAAAGCGCCAUAACUACAGAAAUGUAGUUGACGAGGAGGAGUUUUAUCCAAUUUUCGGCGGAUGCCUCCAAA [G13U G44U G51C] | < 1e-05 | – | – | – | –
AUAAAAGCGCCAGUACUACAGAAAUGUAGUUGACGAGGAGGAGGUUUAUCGAAUUUUCGGCAGAUGCCUCCAAA [A14U G62A] | < 1e-05 | < 1e-05 | – | < 1e-05 | < 1e-05
AUAAAAGCGCCAGAACUACAGAAAUGUAGUUGACGACGAGGAGGUUUAUUGAAUUUUCGGCGGAUUCCUCCAAA [G37C C50U G66U] | < 1e-05 | – | – | – | < 1e-05
AUAAAAGCGCCAGAACUACAGAAAUGUAGUUGAUGAGGAUGAGGUUUAUCGAAUUUUCGGCGGAUGGCUCCAAA [C34U G40U C67G] | < 1e-05 | < 1e-05 | – | – | < 1e-05
AUAAAAGGGCCAGAAGUACAGAAAUGUAGUUGACGAGGAGAAGGUUAAUCGAAUUUUCGGCGGAUGCCUCCAAA [C8G C16G G41A U47A] | < 1e-05 | < 1e-05 | – | < 1e-05 | < 1e-05
